Measurements published in PMC4199108 (Nature Communications, 2014).
Residues, ends and D or L forms follow the SMILES beside them.

Experiments:
[1] = biological target: T1, phosphorylated rhodopsin (Meta II) (Bos taurus, UniProt P02699); assay: Extra Meta II assay: stabilization of Meta II by peptide, UV-visible absorption; assay type: binding, bovine; conditions: 10 μM ROS-P, 100 mM HEPES pH 8.0, 0 °C, 380-nm absorbance
[2] = biological target: phosphorylated opsin (OpsP) (Bos taurus, UniProt P02699); assay type: binding, bovine; conditions: 1 μM arrestin A366NBD + 2 μM OpsP, 50 mM HEPES pH 7.0, 22 °C
Sequence of phosphorylated opsin (OpsP) (P02699 whole entry): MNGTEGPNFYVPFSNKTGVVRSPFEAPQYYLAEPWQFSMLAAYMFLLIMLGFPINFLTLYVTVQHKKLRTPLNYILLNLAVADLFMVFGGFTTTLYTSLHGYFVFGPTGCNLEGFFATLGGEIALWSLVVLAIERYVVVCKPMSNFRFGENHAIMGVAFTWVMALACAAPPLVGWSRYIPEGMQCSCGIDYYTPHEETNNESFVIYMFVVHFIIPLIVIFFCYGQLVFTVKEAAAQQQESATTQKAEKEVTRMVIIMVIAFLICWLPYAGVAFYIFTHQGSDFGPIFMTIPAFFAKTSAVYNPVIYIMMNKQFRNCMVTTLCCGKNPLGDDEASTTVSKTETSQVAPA

[3] = biological target: phosphorylated opsin (OpsP) in membranes (bovine, UniProt P02699 1-348, phosphorylated by native rhodopsin kinase (sites not given)); assay: co-sedimentation
Sequence of phosphorylated opsin (OpsP) in membranes (P02699 whole entry): as above

[4] = biological target: T1, phosphorylated rhodopsin (Meta II); conditions: 380-nm-absorbing Meta II; cited from earlier work

T1 sequence (P02699 whole entry): as above

Molecule	Kd [3] [µM]	further results
CC[C@H](C)[C@H](NC(=O)[C@H](CC(=O)O)NC(=O)[C@H](CCC(=O)O)NC(=O)[C@H](CCC(N)=O)NC(=O)CNC(=O)[C@@H](N)Cc1ccc(O)cc1)C(=O)N[C@@H](CC(=O)O)C(=O)N[C@H](C(=O)N[C@@H](CCSC)C(=O)NCC(=O)N[C@@H](CC(C)C)C(=O)O)C(C)C [ArrFL-1] (H-YGQEDIDVMGL-OH)	–	Stabilization of Meta II / Extra Meta II formation (in words) [1]: stabilized the 380-nm-absorbing Meta II species over Meta I
QRMHLRQYELL [GsαCT]	–	Stabilization of Meta II / Extra Meta II formation (in words) [1]: did not stabilize Meta II; Competition for arrestin binding to phosphorylated opsin (in words) [2]: showed no competition for arrestin binding to phosphorylated opsin
IKENLKDCGLF [GtαCT, wild-type Gtα C-terminal peptide]	880	–
ILENLKDCGLF [GtαCT-HA, high-affinity version of the Gtα C-terminal peptide]	320	–
YGQEDIDVMGL [ArrFL-1, peptide analogue of the finger loop of rod photoreceptor arrestin]	1700	–
arrestin: full-length rod photoreceptor arrestin (protein, NBD label on the single cysteine A366C) MKANKPAPNHVIFKKISRDKSVTIYLGKRDYIDHVERVEPVDGVVLVDPELVKGKRVYVSLTAAFRYGQEDIDVMGLSFRRDLYFSQVQVFPPVGASGATTRLQESLIKKLGANTYPFLLTFPDYLPSSVMLQPAPQDVGKSAGVDFEIKAFATHSTDVEEDKIPKKSSVRLLIRKVQHAPRDMGPQPRAEASFQFFMSDKPLRLAVSLSKEIYYHGEPIPVTVAVTNSTEKTVKKIKVLVEQVTNVVLYSSDYYIKTVAAEEAQEKVPPNSSLTKTLTLVPLLANNRERRGIALDGKIKHEDTNLASSTIIKEGIDKTVMGILVSYQIKVKLTVSGLLGELTSSEVATEVPFRLMHPQPEDPDTCKESFQDENFVFEEFARQNLKDAGEYKEEKTDQEAAMDE	–	Stabilization of Meta II species over Meta I [4]: stabilized the 380-nm-absorbing Meta II species over Meta I
YGREDLDVLGL [ArrFL-2/3, finger loop peptide of beta-arrestin-1 and beta-arrestin-2]	2400	–
